The values below come from the RNAGym collection of RNA variant scans (doi:10.1038/ncomms11558).

Sequences and labels used below:
B1: mRNA-splicing (parent)
chain: GAUCCAGAUCUAACUUGGGGUGGCUUUGUCUUCUUCUUUUGCCAAUUCCACUAAUUGUUUGGG

The variants in this data set derive from B1. The data set can be described thus: exon inclusion enrichment score (log2 ratio to wild type); higher = more inclusion; FAS exon 6 minigene, HEK293.
In the case of CAUCCAGAUCUAACUUGGGGUGGCUUUGUCUUCUUCUUUUGCCAAUUCCACUAAUUGUUUGGG [G1C], the “exon inclusion enrichment score” value is -4.23. In the case of GAUCCAGAUCUUACUUGGGGUGGCUUUGUCUUCUUCUUUUGCCAAUUCCACUAAUUGUUUGGG [A12U] it was -0.405. For GAUCCAGAUCUGACUUGGGGUGGCUUUGUCUUCUUCUUUUGCCAAUUCCACUAAUUGUUUGGG [A12G], the “exon inclusion enrichment score” value turned out to be 0.431. Next, GAUCCAGAUCUCACUUGGGGUGGCUUUGUCUUCUUCUUUUGCCAAUUCCACUAAUUGUUUGGG [A12C]: 0.251; GAUCGAGAUCUAACUUGGGGUGGCUUUGUCUUCUUCUUUUGCCAAUUCCACUAAUUGUUUGGG [C5G]: -0.076; GAUCUAGAUCUAACUUGGGGUGGCUUUGUCUUCUUCUUUUGCCAAUUCCACUAAUUGUUUGGG [C5U]: -4.59. Next, GAUCAAGAUCUAACUUGGGGUGGCUUUGUCUUCUUCUUUUGCCAAUUCCACUAAUUGUUUGGG [C5A]: -0.066; GAUCCAGAACUAACUUGGGGUGGCUUUGUCUUCUUCUUUUGCCAAUUCCACUAAUUGUUUGGG [U9A]: -0.097. In the case of GAUCCAGACCUAACUUGGGGUGGCUUUGUCUUCUUCUUUUGCCAAUUCCACUAAUUGUUUGGG [U9C] it was 1.28; in that of GAUCCAGAGCUAACUUGGGGUGGCUUUGUCUUCUUCUUUUGCCAAUUCCACUAAUUGUUUGGG [U9G], -0.183; in that of GAUCCAGAUCUAACUUGGGGUGGCUUUCUCUUCUUCUUUUGCCAAUUCCACUAAUUGUUUGGG [G28C], -1.84.

With GAUCCAGAUCUAACUUGGGGUGGCUUUAUCUUCUUCUUUUGCCAAUUCCACUAAUUGUUUGGG [G28A], the “exon inclusion enrichment score” value is -1.07. Next, GAUCCAGAUCUAACUUGGGGUGGCUUUUUCUUCUUCUUUUGCCAAUUCCACUAAUUGUUUGGG [G28U]: -1.36; GAUCCAAAUCUAACUUGGGGUGGCUUUGUCUUCUUCUUUUGCCAAUUCCACUAAUUGUUUGGG [G7A]: -1.15; GAUCCAUAUCUAACUUGGGGUGGCUUUGUCUUCUUCUUUUGCCAAUUCCACUAAUUGUUUGGG [G7U]: -2.07. In the case of GAUCCACAUCUAACUUGGGGUGGCUUUGUCUUCUUCUUUUGCCAAUUCCACUAAUUGUUUGGG [G7C] it was -0.443.

On to GAUCCAGAUCUAACCUGGGGUGGCUUUGUCUUCUUCUUUUGCCAAUUCCACUAAUUGUUUGGG [U15C], for which the “exon inclusion enrichment score” value is 0.272. Consider GAUCCAGAUCUAACGUGGGGUGGCUUUGUCUUCUUCUUUUGCCAAUUCCACUAAUUGUUUGGG [U15G], for which the “exon inclusion enrichment score” value came out at 0.039. In the case of GAUCCAGAUCUAACAUGGGGUGGCUUUGUCUUCUUCUUUUGCCAAUUCCACUAAUUGUUUGGG [U15A] it was -0.077.

For the variant GGUCCAGAUCUAACUUGGGGUGGCUUUGUCUUCUUCUUUUGCCAAUUCCACUAAUUGUUUGGG [A2G], the “exon inclusion enrichment score” value was 0.511.

Consider GCUCCAGAUCUAACUUGGGGUGGCUUUGUCUUCUUCUUUUGCCAAUUCCACUAAUUGUUUGGG [A2C], for which the “exon inclusion enrichment score” value was -0.31.

GUUCCAGAUCUAACUUGGGGUGGCUUUGUCUUCUUCUUUUGCCAAUUCCACUAAUUGUUUGGG [A2U]: the “exon inclusion enrichment score” value is -0.046.

Regarding GAUCCAGAUCUAACUUGGUGUGGCUUUGUCUUCUUCUUUUGCCAAUUCCACUAAUUGUUUGGG [G19U], the “exon inclusion enrichment score” value worked out at 0.032. Consider GAUCCAGAUCUAACUUGGAGUGGCUUUGUCUUCUUCUUUUGCCAAUUCCACUAAUUGUUUGGG [G19A], for which the “exon inclusion enrichment score” value was 0.892. In the case of GAUCCAGAUCUAACUUGGCGUGGCUUUGUCUUCUUCUUUUGCCAAUUCCACUAAUUGUUUGGG [G19C] it was 0.027; in that of GAUCCAGCUCUAACUUGGGGUGGCUUUGUCUUCUUCUUUUGCCAAUUCCACUAAUUGUUUGGG [A8C], 0.321. In the case of GAUCCAGGUCUAACUUGGGGUGGCUUUGUCUUCUUCUUUUGCCAAUUCCACUAAUUGUUUGGG [A8G] it was 0.152. Next, GAUCCAGUUCUAACUUGGGGUGGCUUUGUCUUCUUCUUUUGCCAAUUCCACUAAUUGUUUGGG [A8U]: -0.416; GAUCCAGAUCUAACUUGUGGUGGCUUUGUCUUCUUCUUUUGCCAAUUCCACUAAUUGUUUGGG [G18U]: 0.258; GAUCCAGAUCUAACUUGCGGUGGCUUUGUCUUCUUCUUUUGCCAAUUCCACUAAUUGUUUGGG [G18C]: 0.301. In the case of GAUCCAGAUCUAACUUGAGGUGGCUUUGUCUUCUUCUUUUGCCAAUUCCACUAAUUGUUUGGG [G18A], the “exon inclusion enrichment score” value was -0.636. In the case of GAACCAGAUCUAACUUGGGGUGGCUUUGUCUUCUUCUUUUGCCAAUUCCACUAAUUGUUUGGG [U3A] it was -0.683; in that of GAGCCAGAUCUAACUUGGGGUGGCUUUGUCUUCUUCUUUUGCCAAUUCCACUAAUUGUUUGGG [U3G], -0.136; in that of GACCCAGAUCUAACUUGGGGUGGCUUUGUCUUCUUCUUUUGCCAAUUCCACUAAUUGUUUGGG [U3C], -0.472. Consider GAUCCAGAUCUAACUUGGGGUGGCUUAGUCUUCUUCUUUUGCCAAUUCCACUAAUUGUUUGGG [U27A], for which the “exon inclusion enrichment score” value is -0.647.

Consider GAUCCAGAUCUAACUUGGGGUGGCUUCGUCUUCUUCUUUUGCCAAUUCCACUAAUUGUUUGGG [U27C], for which the “exon inclusion enrichment score” value amounted to 0.72. Next, GAUCCAGAUCUAACUUGGGGUGGCUUGGUCUUCUUCUUUUGCCAAUUCCACUAAUUGUUUGGG [U27G]: -0.115; GAUCCCGAUCUAACUUGGGGUGGCUUUGUCUUCUUCUUUUGCCAAUUCCACUAAUUGUUUGGG [A6C]: -0.522. In the case of GAUCCUGAUCUAACUUGGGGUGGCUUUGUCUUCUUCUUUUGCCAAUUCCACUAAUUGUUUGGG [A6U], the “exon inclusion enrichment score” value is -0.25. Next, GAUCCGGAUCUAACUUGGGGUGGCUUUGUCUUCUUCUUUUGCCAAUUCCACUAAUUGUUUGGG [A6G]: 0.571. In the case of GAUCCAGAUCUAACUUGGGUUGGCUUUGUCUUCUUCUUUUGCCAAUUCCACUAAUUGUUUGGG [G20U] it was -2.17; in that of GAUCCAGAUCUAACUUGGGCUGGCUUUGUCUUCUUCUUUUGCCAAUUCCACUAAUUGUUUGGG [G20C], 0. Next, GAUCCAGAUCUAACUUGGGAUGGCUUUGUCUUCUUCUUUUGCCAAUUCCACUAAUUGUUUGGG [G20A]: 0.232.
